Source: patent US20240132593A1 (KINETA, published 2024)

What was measured:
[1] = target: Antibody No. 245.1; test: peptide blocking ELISA on plate-bound VISTA, peptide 2 ug/mL
[2] = target: VSTB174; test: as above
[3] = target: T1, Antibody No. 465.1; test: as above
T1 construct: also called Ab No. 465.1

[4] = target: Antibody No. 245.1; test: peptide blocking ELISA on plate-bound VISTA, peptide 20 ug/mL
[5] = target: VSTB174; test: as above
[6] = target: T1, Antibody No. 465.1; test: as above
[7] = target: T2, VISTA-His ECD (Sino Biological 13482-H08H) (human, UniProt Q9H7M9 33-194); test: BLI (Octet K2), ratio of off-rates at pH 7.4 to control Ab No. 245.1
T2 construct: Bought protein; also called VISTA-ECD; not shown: His tag

[8] = target: T2, VISTA-His ECD (Sino Biological …); test: BLI (Octet K2), ratio of the pH 6.0 fold change to the pH 7.4 fold change

Sequence of VSTB174 (VH, as listed by the source, chain 1 of 2): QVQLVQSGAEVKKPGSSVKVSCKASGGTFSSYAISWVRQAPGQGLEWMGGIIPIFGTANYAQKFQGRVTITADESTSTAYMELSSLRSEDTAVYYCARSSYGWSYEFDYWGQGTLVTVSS
Sequence of VSTB174 (VL, as listed by the source, chain 2 of 2): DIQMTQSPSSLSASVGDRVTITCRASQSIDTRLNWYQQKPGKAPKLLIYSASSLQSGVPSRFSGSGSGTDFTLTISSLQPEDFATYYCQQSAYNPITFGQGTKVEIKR

Row | Binder | Kdis (pH 7.4) ÷ Kdis, Ab No. 245.1 (pH 7.4) [7] | ΔKdis (pH 6.0)/ΔKdis (pH 7.4) [8] | further results
1 | SSSQESENITAA (synthetic overlapping peptide from human VISTA) [Spiked Peptide 31 (SSSQESENITAA)] | – | – | percent reduction in ELISA signal [1]: 0%; percent reduction in ELISA signal [2]: 15%; percent reduction in ELISA signal [3]: 0%; percent reduction in ELISA signal [4]: 8%; percent reduction in ELISA signal [5]: 27%; percent reduction in ELISA signal [6]: 5%
2 | CVVYPSSSQESENIT (synthetic overlapping peptide from human VISTA) [Spiked Peptide 30 (CVVYPSSSQESENIT)] | – | – | percent reduction in ELISA signal [1]: 0%; percent reduction in ELISA signal [2]: 12%; percent reduction in ELISA signal [3]: 0%; percent reduction in ELISA signal [4]: 0%; percent reduction in ELISA signal [5]: 21%; percent reduction in ELISA signal [6]: 0%
3 | Antibody No. 474.1 with VH Y32H, VH Y52H (antibody, V domains shown) VH: QVQLQESGPGLVKPSETLSLTCTVSGGSISSHYWSWIRQPPGKGLEWIGYIHYSGSTNYNPSLKSRVTISVDTSKSQFSLKLSSVTAADTAVYYCARDIPAFAFDIWGQGTMVIVSS VL: EIVLTQSPATLSLSPGERATLSCRASQSVSYYLAWYQQKPGQAPRLLIYDAFNRATGIPARFSGSGSGTDFTLTISSLEPEDFAVYYCQQRINWPLTFGGGTKVEIK | 5 s⁻¹ | 3.4 | –
4 | Antibody No. 474.1 with VL Y31H, VH Y52H (second of two rows so labelled, the 40th table r13) (antibody, human IgG1, V domains shown) VH: QVQLQESGPGLVKPSETLSLTCTVSGGSISSYYWSWIRQPPGKGLEWIGYIHYSGSTNYNPSLKSRVTISVDTSKSQFSLKLSSVTAADTAVYYCARDIPAFAFDIWGQGTMVIVSS VL: EIVLTQSPATLSLSPGERATLSCRASQSVSHYLAWYQQKPGQAPRLLIYDAFNRATGIPARFSGSGSGTDFTLTISSLEPEDFAVYYCQQRINWPLTFGGGTKVEIK | 37 s⁻¹ | 3.8 | –
5 | Antibody No. 474.1 with VL Y31H, VH Y32H (antibody, V domains shown) VH: QVQLQESGPGLVKPSETLSLTCTVSGGSISSHYWSWIRQPPGKGLEWIGYIYYSGSTNYNPSLKSRVTISVDTSKSQFSLKLSSVTAADTAVYYCARDIPAFAFDIWGQGTMVIVSS VL: EIVLTQSPATLSLSPGERATLSCRASQSVSHYLAWYQQKPGQAPRLLIYDAFNRATGIPARFSGSGSGTDFTLTISSLEPEDFAVYYCQQRINWPLTFGGGTKVEIK | 12 s⁻¹ | 5.8 | –
6 | Antibody No. 474.1 with VH Y32H, VH Y33H, VH Y52H (antibody, V domains shown) VH: QVQLQESGPGLVKPSETLSLTCTVSGGSISSHHWSWIRQPPGKGLEWIGYIHYSGSTNYNPSLKSRVTISVDTSKSQFSLKLSSVTAADTAVYYCARDIPAFAFDIWGQGTMVIVSS VL: EIVLTQSPATLSLSPGERATLSCRASQSVSYYLAWYQQKPGQAPRLLIYDAFNRATGIPARFSGSGSGTDFTLTISSLEPEDFAVYYCQQRINWPLTFGGGTKVEIK | 14 s⁻¹ | 5.2 | –
7 | Antibody No. 474.1 with VL Y32H, VH Y32H, VH Y52H (antibody, V domains shown) VH: QVQLQESGPGLVKPSETLSLTCTVSGGSISSHYWSWIRQPPGKGLEWIGYIHYSGSTNYNPSLKSRVTISVDTSKSQFSLKLSSVTAADTAVYYCARDIPAFAFDIWGQGTMVIVSS VL: EIVLTQSPATLSLSPGERATLSCRASQSVSYHLAWYQQKPGQAPRLLIYDAFNRATGIPARFSGSGSGTDFTLTISSLEPEDFAVYYCQQRINWPLTFGGGTKVEIK | 71 s⁻¹ | 1.8 | –
8 | Antibody No. 474.1 with VL Y31H, VH Y32H, VH Y52H (antibody, V domains shown) VH: QVQLQESGPGLVKPSETLSLTCTVSGGSISSHYWSWIRQPPGKGLEWIGYIHYSGSTNYNPSLKSRVTISVDTSKSQFSLKLSSVTAADTAVYYCARDIPAFAFDIWGQGTMVIVSS VL: EIVLTQSPATLSLSPGERATLSCRASQSVSHYLAWYQQKPGQAPRLLIYDAFNRATGIPARFSGSGSGTDFTLTISSLEPEDFAVYYCQQRINWPLTFGGGTKVEIK | 61 s⁻¹ | 2 | –
9 | Antibody No. 474.1 with VL Y32H, VH Y32H (antibody, V domains shown) VH: QVQLQESGPGLVKPSETLSLTCTVSGGSISSHYWSWIRQPPGKGLEWIGYIYYSGSTNYNPSLKSRVTISVDTSKSQFSLKLSSVTAADTAVYYCARDIPAFAFDIWGQGTMVIVSS VL: EIVLTQSPATLSLSPGERATLSCRASQSVSYHLAWYQQKPGQAPRLLIYDAFNRATGIPARFSGSGSGTDFTLTISSLEPEDFAVYYCQQRINWPLTFGGGTKVEIK | 15 s⁻¹ | 5.9 | –
10 | Antibody No. 474.1 with VH Y32H, VH Y33H (antibody, V domains shown) VH: QVQLQESGPGLVKPSETLSLTCTVSGGSISSHHWSWIRQPPGKGLEWIGYIYYSGSTNYNPSLKSRVTISVDTSKSQFSLKLSSVTAADTAVYYCARDIPAFAFDIWGQGTMVIVSS VL: EIVLTQSPATLSLSPGERATLSCRASQSVSYYLAWYQQKPGQAPRLLIYDAFNRATGIPARFSGSGSGTDFTLTISSLEPEDFAVYYCQQRINWPLTFGGGTKVEIK | 4 s⁻¹ | 6.9 | –
11 | Antibody No. 474.1 with VL Y32H, VH Y32H, VH Y33H (antibody, V domains shown) VH: QVQLQESGPGLVKPSETLSLTCTVSGGSISSHHWSWIRQPPGKGLEWIGYIYYSGSTNYNPSLKSRVTISVDTSKSQFSLKLSSVTAADTAVYYCARDIPAFAFDIWGQGTMVIVSS VL: EIVLTQSPATLSLSPGERATLSCRASQSVSYHLAWYQQKPGQAPRLLIYDAFNRATGIPARFSGSGSGTDFTLTISSLEPEDFAVYYCQQRINWPLTFGGGTKVEIK | 56 s⁻¹ | 2.4 | –
12 | Antibody No. 474.1 with VL Y32H, VH Y33H (antibody, V domains shown) VH: QVQLQESGPGLVKPSETLSLTCTVSGGSISSYHWSWIRQPPGKGLEWIGYIYYSGSTNYNPSLKSRVTISVDTSKSQFSLKLSSVTAADTAVYYCARDIPAFAFDIWGQGTMVIVSS VL: EIVLTQSPATLSLSPGERATLSCRASQSVSYHLAWYQQKPGQAPRLLIYDAFNRATGIPARFSGSGSGTDFTLTISSLEPEDFAVYYCQQRINWPLTFGGGTKVEIK | 52 s⁻¹ | 2.7 | –
13 | Antibody No. 474.1 with VL Y32H, VH Y52H (antibody, V domains shown) VH: QVQLQESGPGLVKPSETLSLTCTVSGGSISSYYWSWIRQPPGKGLEWIGYIHYSGSTNYNPSLKSRVTISVDTSKSQFSLKLSSVTAADTAVYYCARDIPAFAFDIWGQGTMVIVSS VL: EIVLTQSPATLSLSPGERATLSCRASQSVSYHLAWYQQKPGQAPRLLIYDAFNRATGIPARFSGSGSGTDFTLTISSLEPEDFAVYYCQQRINWPLTFGGGTKVEIK | 45 s⁻¹ | 3.4 | –
14 | Antibody No. 474.1 with VL Y31H, VH Y32H, VH Y33H (antibody, V domains shown) VH: QVQLQESGPGLVKPSETLSLTCTVSGGSISSHHWSWIRQPPGKGLEWIGYIYYSGSTNYNPSLKSRVTISVDTSKSQFSLKLSSVTAADTAVYYCARDIPAFAFDIWGQGTMVIVSS VL: EIVLTQSPATLSLSPGERATLSCRASQSVSHYLAWYQQKPGQAPRLLIYDAFNRATGIPARFSGSGSGTDFTLTISSLEPEDFAVYYCQQRINWPLTFGGGTKVEIK | 68 s⁻¹ | 1.5 | –
